Test results reported in paper PMC11456535, “Receptor activity-modifying protein modulation of parathyroid hormone-1 receptor function and signaling” (Frontiers in Pharmacology, 2024).
Like-named read-outs stand apart in the source and are kept apart here. Each block holds one molecule with its values, some of them ahead of it.

How the values were obtained:
[1] = biological target: PTH1R of the PathHunter CHO-K1 PTH1R β-arrestin cell line (UniProt Q03431)
[2] = biological target: PTH1R of the PathHunter CHO-K1 PTH1R β-arrestin cell line (UniProt Q03431); remark: listed apart in the source
[3] = biological target: PTH1R of the PathHunter CHO-K1 PTH1R β-arrestin cell line (UniProt Q03431); remark: listed apart in the source
[4] = biological target: T1, parathyroid hormone 1 receptor, C-tagged Citrine PTH1R (human, UniProt Q03431 27-593); assay: FRET or BRET; sensitized-emission FRET imaging at the cell surface (50-pixel membrane ROIs) of fixed COS-7 cells co-transfected with C-tagged Citrine PTH1R (acceptor) and C-tagged Cerulean RAMP (donor); NFRET as % of a Cerulean-Citrine fusion; FRET-based stoichiometric analysis (Hoppe et al., 2002); conditions: partners not purified
T1 construct: parathyroid hormone 1 receptor (PTH1R), cDNA without its stop codon between HindIII and Not1 of pcDNA3.1 Citrine; also called parathyroid hormone receptor-1; PTHR1; source: COS-7, transfected (electroporation, pcDNA3.1), in fixed cells; not shown: Citrine, C-terminal, kept
T1 sequence (looked up): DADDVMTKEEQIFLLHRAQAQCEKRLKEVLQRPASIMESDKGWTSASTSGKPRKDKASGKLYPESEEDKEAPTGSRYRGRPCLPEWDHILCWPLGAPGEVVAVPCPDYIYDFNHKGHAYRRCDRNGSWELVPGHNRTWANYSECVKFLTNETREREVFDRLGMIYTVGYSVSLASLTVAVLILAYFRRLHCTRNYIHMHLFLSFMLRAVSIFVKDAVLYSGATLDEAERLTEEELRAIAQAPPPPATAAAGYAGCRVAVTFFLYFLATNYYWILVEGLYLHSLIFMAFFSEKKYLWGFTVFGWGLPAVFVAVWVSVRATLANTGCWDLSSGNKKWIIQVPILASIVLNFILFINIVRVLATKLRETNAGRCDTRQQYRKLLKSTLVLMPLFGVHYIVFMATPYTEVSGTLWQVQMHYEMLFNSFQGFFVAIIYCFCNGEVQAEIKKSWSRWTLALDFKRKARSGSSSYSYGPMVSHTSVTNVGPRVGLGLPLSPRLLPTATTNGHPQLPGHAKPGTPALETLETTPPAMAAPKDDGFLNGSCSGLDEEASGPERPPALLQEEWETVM

[5] = biological target: T1, parathyroid hormone 1 receptor, …; assay: as above; conditions: partners not purified; remark: listed apart in the source

Molecule: PTHrP (1-141) (ligand)
efficacy, cAMP accumulation, CHO-K1 PTH1R + RAMP2 cells [2]: 85.3% | efficacy, cAMP accumulation, CHO-K1 PTH1R + RAMP3 cells [2]: 55.7% | efficacy, cAMP accumulation, CHO-K1 PTH1R parental cells (mock) [2]: 74.9% | pEC50, cAMP accumulation, CHO-K1 PTH1R + RAMP2 cells [2]: 9.25 pEC50 | pEC50, cAMP accumulation, CHO-K1 PTH1R + RAMP3 cells [2]: 7.86 pEC50 | pEC50, cAMP accumulation, CHO-K1 PTH1R parental cells (mock) [2]: 9.23 pEC50

B1: PTH (1-84) (ligand)
chain: SVSEIQLMHNLGKHLNSMERVEWLRKKLQDVHNFVALGAPLAPRDAGSQRPRKKEDNVLVESHEKSLGEADKADVNVLTKAKSQ
efficacy, cAMP accumulation (Gαs), CHO-K1 PTH1R + RAMP2 cells [3]: 95.5% | efficacy, cAMP accumulation (Gαs), CHO-K1 PTH1R + RAMP3 cells [3]: 72.2% | efficacy, cAMP accumulation (Gαs), CHO-K1 PTH1R parental cells (mock) [3]: 86.6% | efficacy, cAMP accumulation after pertussis toxin (cAMP + PTX), CHO-K1 PTH1R + RAMP2 cells [3]: 94.3% | efficacy, cAMP accumulation after pertussis toxin (cAMP + PTX), CHO-K1 PTH1R + RAMP3 cells [3]: 71.5% | efficacy, cAMP accumulation after pertussis toxin (cAMP + PTX), CHO-K1 PTH1R parental cells (mock) [3]: 85.5% | efficacy, calcium influx (Gαq), CHO-K1 PTH1R + RAMP2 cells [3]: 82.2% | efficacy, β-arrestin recruitment, CHO-K1 PTH1R + RAMP2 cells [3]: 104% | efficacy, β-arrestin recruitment, CHO-K1 PTH1R parental cells (mock) [3]: 6.08% | pEC50, cAMP accumulation (Gαs), CHO-K1 PTH1R + RAMP2 cells [3]: 9.24 pEC50 | pEC50, cAMP accumulation (Gαs), CHO-K1 PTH1R + RAMP3 cells [3]: 7.55 pEC50 | pEC50, cAMP accumulation (Gαs), CHO-K1 PTH1R parental cells (mock) [3]: 8.2 pEC50 | pEC50, cAMP accumulation after pertussis toxin (cAMP + PTX), CHO-K1 PTH1R + RAMP2 cells [3]: 9.01 pEC50 | pEC50, cAMP accumulation after pertussis toxin (cAMP + PTX), CHO-K1 PTH1R + RAMP3 cells [3]: 7.51 pEC50 | pEC50, cAMP accumulation after pertussis toxin (cAMP + PTX), CHO-K1 PTH1R parental cells (mock) [3]: 7.8 pEC50 | pEC50, calcium influx (Gαq), CHO-K1 PTH1R + RAMP2 cells [3]: 7.38 pEC50 | pEC50, β-arrestin recruitment, CHO-K1 PTH1R + RAMP2 cells [3]: 8.1 pEC50 | pEC50, β-arrestin recruitment, CHO-K1 PTH1R parental cells (mock) [3]: 8.4 pEC50

B2: receptor activity-modifying protein 2, C-tagged Cerulean RAMP2 (natural protein, human, UniProt O60895 43-175, looked up)
chain: QPLPTTGTPGSEGGTVKNYETAVQFCWNHYKDQMDPIEKDWCDWAMISRPYSTLRDCLEHFAELFDLGFPNPLAERIIFETHQIHFANCSLVQPTFSDPPEDVLLAMIIAPICLIPFLITLVVWRSKDSEAQA
notes: RAMP2, cDNA without its stop codon between Kpn1 and Not1 of pcDNA3.1 Cerulean; source: COS-7, transfected (electroporation, pcDNA3.1), in fixed cells; not shown: Cerulean, C-terminal, kept
stoichiometry N [4]: ~1 RAMP2 per PTH1R | R (molar ratio of acceptor to donor) [5]: 1.27 ± 0.31 PTH1R (acceptor) per RAMP2 (donor) | cell membrane NFRET relative to cer-cit fusion [5]: 48.8 ± 4.1%

B3: receptor activity-modifying protein 3, C-tagged Cerulean RAMP3 (natural protein, human, UniProt O60896 24-148, looked up)
chain: RAGGCNETGMLERLPLCGKAFADMMGKVDVWKWCNLSEFIVYYESFTNCTEMEANVVGCYWPNPLAQGFITGIHRQFFSNCTVDRVHLEDPPDEVLIPLIVIPVVLTVAMAGLVVWRSKRTDTLL
notes: RAMP3, cDNA without its stop codon between Kpn1 and Not1 of pcDNA3.1 Cerulean; source: COS-7, transfected (electroporation, pcDNA3.1), in fixed cells; not shown: Cerulean, C-terminal, kept
stoichiometry N [4]: ~2 RAMP3 per PTH1R | R (molar ratio of acceptor to donor) [5]: 0.37 ± 0.06 PTH1R (acceptor) per RAMP3 (donor) | cell membrane NFRET relative to cer-cit fusion [5]: 32 ± 4.7%

Second part, led by results:

efficacy, cAMP accumulation (Gαs), CHO-K1 PTH1R + RAMP2 cells [1]: 79.4% | efficacy, cAMP accumulation (Gαs), CHO-K1 PTH1R + RAMP3 cells [1]: 65.1% | efficacy, cAMP accumulation (Gαs), CHO-K1 PTH1R parental cells (mock) [1]: 68.1% | efficacy, calcium influx (Gαq), CHO-K1 PTH1R + RAMP2 cells [1]: 63.5% | efficacy, calcium influx (Gαq), CHO-K1 PTH1R parental cells (mock) [1]: 19.8% | efficacy, β-arrestin recruitment, CHO-K1 PTH1R + RAMP2 cells [1]: 103% | efficacy, β-arrestin recruitment, CHO-K1 PTH1R parental cells (mock) [1]: 6.31% | pEC50, cAMP accumulation (Gαs), CHO-K1 PTH1R + RAMP2 cells [1]: 9.55 pEC50 | pEC50, cAMP accumulation (Gαs), CHO-K1 PTH1R + RAMP3 cells [1]: 8.55 pEC50 | pEC50, cAMP accumulation (Gαs), CHO-K1 PTH1R parental cells (mock) [1]: 9.3 pEC50 | pEC50, calcium influx (Gαq), CHO-K1 PTH1R + RAMP2 cells [1]: 8.21 pEC50 | pEC50, calcium influx (Gαq), CHO-K1 PTH1R parental cells (mock) [1]: 8.9 pEC50 | pEC50, β-arrestin recruitment, CHO-K1 PTH1R + RAMP2 cells [1]: 8.19 pEC50 | pEC50, β-arrestin recruitment, CHO-K1 PTH1R parental cells (mock) [1]: 8.6 pEC50
Molecule: PTH (1-34) (peptide)
efficacy, cAMP accumulation after pertussis toxin (cAMP + PTX), CHO-K1 PTH1R + RAMP2 cells [1]: 71.6% | efficacy, cAMP accumulation after pertussis toxin (cAMP + PTX), CHO-K1 PTH1R + RAMP3 cells [1]: 28.7% | efficacy, cAMP accumulation after pertussis toxin (cAMP + PTX), CHO-K1 PTH1R parental cells (mock) [1]: 33.5% | pEC50, cAMP accumulation after pertussis toxin (cAMP + PTX), CHO-K1 PTH1R + RAMP2 cells [1]: 10 pEC50 | pEC50, cAMP accumulation after pertussis toxin (cAMP + PTX), CHO-K1 PTH1R + RAMP3 cells [1]: 8.48 pEC50 | pEC50, cAMP accumulation after pertussis toxin (cAMP + PTX), CHO-K1 PTH1R parental cells (mock) [1]: 8.9 pEC50

efficacy, cAMP accumulation, CHO-K1 PTH1R + RAMP2 cells [2]: 81.4% | efficacy, cAMP accumulation, CHO-K1 PTH1R parental cells (mock) [2]: 72.8% | pEC50, cAMP accumulation, CHO-K1 PTH1R + RAMP2 cells [2]: 8.61 pEC50 | pEC50, cAMP accumulation, CHO-K1 PTH1R parental cells (mock) [2]: 8.25 pEC50
Molecule: PTHrP (1-108) (domain or fragment)
